Data: the supplement of paper PMC10126150
± gives the standard deviation of the averaged measurements.

Test system: ATP
Assay: switch fluorescence ratio, 500 uM ATP over buffer (Cy3 cluster intensity, sum of 5 cycles each) (fold (ratio)); higher = stronger signal-on switching upon ATP binding; sequences stand for … in TCGTCGGCAGCGTCAGATGTGTATAAGAGACAGTTTTTTTTTTTTTTTTTTTTTTTTT…TC
Details: aptamer strand: ATP DNA aptamer (quencher-CACCTGGGGGAGTATTGCGGAGGAAGG + anchor), 100 nM annealed; ATP concentration: 500 uM
In short: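 Cy3-labelled switching-strand clusters on a modified Illumina MiSeq flow-cell were annealed to 100 nM quencher-labelled ATP aptamer, imaged in selection buffer, then imaged after 15 min with 500 uM ATP at 22 °C. Five buffer/ATP cycles ran, with NaOH stripping and re-annealing between them. The fluorescence ratio is summed target-cycle over summed buffer-cycle Cy3 intensity per cluster, averaged per switch-domain sequence. Clusters outside 100-1000 RFU were excluded.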
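Further: ATP exposure 15 min at 22 °C before imaging.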

| Sequence | switch fluorescence ratio |
| --- | --- |
| TTTTATTTTG | 1.01 ± 0.057 |
| TTTTCAACGG | 1.01 ± 0.0017 |
| TTTTCAAGGG | 0.967 ± 0.015 |
| TTTTCACTCG | 1.006 ± 0.0038 |
| TTTTCAGATG | 1.02 ± 0.015 |
| TTTTCATGGC | 1.06 ± 0.018 |
| TTTTCCTGCG | 1.65 ± 0.64 |
| TTTTCGATGT | 0.994 ± 0.042 |
| TTTTCGGGGC | 0.981 ± 0.035 |
| TTTTCGGGGG | 1 ± 0.04 |
| TTTTCGTAAT | 2.26 ± 1.9 |
| TTTTCGTAGC | 1.09 ± 0.14 |
| TTTTCGTAGG | 0.983 ± 0.011 |
| TTTTCGTC | 0.978 ± 0.03 |
| TTTTCGTGCT | 0.956 ± 0.05 |
| TTTTCGTTCG | 1.01 ± 0.059 |
| TTTTCTAGTA | 0.983 ± 0.038 |
| TTTTCTCCGA | 1.2 ± 0.26 |
| TTTTCTCCTC | 1.31 ± 0.35 |
| TTTTCTCTAG | 1.01 ± 0.055 |
| TTTTCTCTTA | 1.0182 ± 0.00039 |
| TTTTCTGGCT | 1.04 ± 0.035 |
| TTTTCTGGGG | 0.994 ± 0.032 |

| Sequence | switch fluorescence ratio |
| --- | --- |
| TTTTCTGTGG | 0.994 ± 0.035 |
| TTTTGAACAA | 1.02 ± 0.039 |
| TTTTGAAGCC | 1.03 ± 0.014 |
| TTTTGAAGCG | 0.99 ± 0.024 |
| TTTTGACTGC | 0.977 ± 0.05 |
| TTTTGAGGGT | 0.99 ± 0.023 |
| TTTTGAGGTA | 1.05 ± 0.023 |
| TTTTGAGTAC | 1.01 ± 0.042 |
| TTTTGAGTGG | 0.995 ± 0.025 |
| TTTTGAGTTT | 0.984 ± 0.028 |
| TTTTGATATC | 0.997 ± 0.012 |
| TTTTGATTAC | 1.01 ± 0.065 |
| TTTTGCAAGC | 1.14 ± 0.13 |
| TTTTGCATTC | 1.1 ± 0.053 |
| TTTTGCATTT | 1.04 ± 0.055 |
| TTTTGCCATA | 1.02 ± 0.042 |
| TTTTGCCCGA | 0.988 ± 0.029 |
| TTTTGCCGAG | 0.994 ± 0.011 |
| TTTTGCCTTC | 1.09 ± 0.027 |
| TTTTGCCTTG | 0.967 ± 0.043 |
| TTTTGCGGAT | 1.04 ± 0.015 |
| TTTTGCTCGG | 0.998 ± 0.025 |
| TTTTGCTTGG | 1.01 ± 0.015 |

| Sequence | switch fluorescence ratio |
| --- | --- |
| TTTTGGAAAT | 1.02 ± 0.027 |
| TTTTGGACGG | 1.01 ± 0.032 |
| TTTTGGAGC | 1.05 ± 0.068 |
| TTTTGGATTG | 0.986 ± 0.026 |
| TTTTGGCAGA | 0.982 ± 0.047 |
| TTTTGGCATG | 1.03 ± 0.034 |
| TTTTGGCGC | 1.002 ± 0.0012 |
| TTTTGGCTAT | 1.017 ± 0.0015 |
| TTTTGGGAAA | 0.989 ± 0.044 |
| TTTTGGGACG | 0.993 ± 0.082 |
| TTTTGGGATG | 0.978 ± 0.033 |
| TTTTGGGATT | 1.03 ± 0.06 |
| TTTTGGGGCT | 1.01 ± 0.03 |
| TTTTGGGGGC | 1.01 ± 0.023 |
| TTTTGGGTC | 0.999 ± 0.034 |
| TTTTGGGTCG | 1.03 ± 0.025 |
| TTTTGGGTGA | 1.01 ± 0.024 |
| TTTTGGTACT | 0.984 ± 0.027 |
| TTTTGGTAGC | 1.01 ± 0.017 |
| TTTTGGTCGA | 1.03 ± 0.022 |
| TTTTGGTGCT | 1.01 ± 0.03 |
| TTTTGGTGGT | 1.01 ± 0.024 |
| TTTTGGTGTG | 1.01 ± 0.026 |

| Sequence | switch fluorescence ratio |
| --- | --- |
| TTTTGTAAGC | 1.04 ± 0.083 |
| TTTTGTAAGT | 0.992 ± 0.029 |
| TTTTGTACAT | 0.99 ± 0.039 |
| TTTTGTACGT | 1.02 ± 0.041 |
| TTTTGTATAT | 1.01 ± 0.025 |
| TTTTGTCGTT | 1.03 ± 0.095 |
| TTTTGTGAGC | 0.996 ± 0.021 |
| TTTTGTGGAT | 1.05 ± 0.053 |
| TTTTGTGGTG | 1.001 ± 0.007 |
| TTTTGTGTCA | 0.969 ± 0.029 |
| TTTTGTGTGG | 1.01 ± 0.026 |
| TTTTGTTATT | 1.03 ± 0.068 |
| TTTTGTTGAT | 1.03 ± 0.052 |
| TTTTTAAAAC | 1.003 ± 0.0097 |
| TTTTTAAAG | 1.022 ± 0.0083 |
| TTTTTAACTA | 0.993 ± 0.012 |
| TTTTTAACTT | 0.995 ± 0.022 |
| TTTTTACAAT | 1.01 ± 0.039 |
| TTTTTACGCA | 1.154 ± 0.0098 |
| TTTTTACGTT | 1.03 ± 0.021 |
| TTTTTAGACT | 1 ± 0.038 |
| TTTTTAGATA | 0.973 ± 0.038 |
| TTTTTAGATC | 1.004 ± 0.0088 |

| Sequence | switch fluorescence ratio |
| --- | --- |
| TTTTTAGGAC | 0.997 ± 0.014 |
| TTTTTAGGG | 0.983 ± 0.034 |
| TTTTTAGTCT | 1 ± 0.027 |
| TTTTTATGTT | 0.99 ± 0.032 |
| TTTTTATTTA | 0.991 ± 0.025 |
| TTTTTCAAAT | 1.04 ± 0.076 |
| TTTTTCACG | 1 ± 0.04 |
| TTTTTCCACG | 1.03 ± 0.018 |
| TTTTTCCCCA | 1.05 ± 0.042 |
| TTTTTCCCTT | 1.01 ± 0.034 |
| TTTTTCGAAG | 0.9894 ± 0.0098 |
| TTTTTCGGAT | 1.05 ± 0.14 |
| TTTTTCGGGC | 1.08 ± 0.24 |
| TTTTTCGGGT | 0.974 ± 0.018 |
| TTTTTCTACA | 1.11 ± 0.12 |
| TTTTTCTCGA | 0.991 ± 0.034 |
| TTTTTCTGTT | 0.984 ± 0.039 |
| TTTTTGAAAA | 1.018 ± 0.0055 |
| TTTTTGACTT | 1.005 ± 0.0092 |
| TTTTTGAGTG | 0.976 ± 0.02 |
| TTTTTGATCG | 0.997 ± 0.039 |
| TTTTTGATCT | 0.998 ± 0.016 |
| TTTTTGCACC | 1.04 ± 0.037 |

| Sequence | switch fluorescence ratio |
| --- | --- |
| TTTTTGCATA | 1.25 ± 0.26 |
| TTTTTGCTCG | 1 ± 0.03 |
| TTTTTGGAGT | 1.05 ± 0.07 |
| TTTTTGGCAC | 0.982 ± 0.029 |
| TTTTTGGCTC | 1.01 ± 0.019 |
| TTTTTGGGAC | 1.03 ± 0.045 |
| TTTTTGGGCA | 0.99 ± 0.013 |
| TTTTTGGGCG | 1.01 ± 0.022 |
| TTTTTGGGTC | 1.03 ± 0.12 |
| TTTTTGGTAA | 1.01 ± 0.021 |
| TTTTTGGTAC | 1.05 ± 0.076 |
| TTTTTGTAAC | 1.01 ± 0.022 |
| TTTTTGTAGT | 1.01 ± 0.032 |
| TTTTTGTCCC | 1.04 ± 0.054 |
| TTTTTGTCCG | 1.02 ± 0.042 |
| TTTTTGTCTG | 0.9814 ± 0.0091 |
| TTTTTGTGCA | 1.01 ± 0.011 |
| TTTTTGTTCG | 0.998 ± 0.015 |
| TTTTTTAATA | 1 ± 0.036 |
| TTTTTTACAG | 1.02 ± 0.011 |
| TTTTTTACCA | 1.01 ± 0.036 |
| TTTTTTACCG | 1.02 ± 0.04 |
| TTTTTTACGT | 1.043 ± 0.0092 |

| Sequence | switch fluorescence ratio |
| --- | --- |
| TTTTTTACTT | 1.03 ± 0.054 |
| TTTTTTAGAG | 1.004 ± 0.0068 |
| TTTTTTAGTG | 0.981 ± 0.026 |
| TTTTTTATGG | 1.01 ± 0.031 |
| TTTTTTCCAC | 1.01 ± 0.028 |
| TTTTTTCTCT | 0.994 ± 0.02 |
| TTTTTTGCTT | 0.989 ± 0.038 |
| TTTTTTGT | 0.982 ± 0.021 |
| TTTTTTGTCC | 1.01 ± 0.018 |
| TTTTTTTAGT | 0.996 ± 0.022 |
| TTTTTTTATC | 1.01 ± 0.027 |
| TTTTTTTCAC | 0.953 ± 0.058 |
| TTTTTTTCCC | 1.01 ± 0.018 |
| TTTTTTTCGC | 1.01 ± 0.032 |
| TTTTTTTCTA | 0.99 ± 0.014 |
| TTTTTTTG | 0.997 ± 0.026 |
| TTTTTTTGCC | 1 ± 0.058 |
| TTTTTTTTAG | 1.07 ± 0.27 |
| TTTTTTTTGG | 0.998 ± 0.032 |
| TTTTTTTTTG | 0.987 ± 0.025 |
